For assay [1], the target named is T1, LRP6 (low-density lipoprotein receptor-related protein 6) (UniProt O75581 20-1370, limits assumed).
T1 sequence (looked up): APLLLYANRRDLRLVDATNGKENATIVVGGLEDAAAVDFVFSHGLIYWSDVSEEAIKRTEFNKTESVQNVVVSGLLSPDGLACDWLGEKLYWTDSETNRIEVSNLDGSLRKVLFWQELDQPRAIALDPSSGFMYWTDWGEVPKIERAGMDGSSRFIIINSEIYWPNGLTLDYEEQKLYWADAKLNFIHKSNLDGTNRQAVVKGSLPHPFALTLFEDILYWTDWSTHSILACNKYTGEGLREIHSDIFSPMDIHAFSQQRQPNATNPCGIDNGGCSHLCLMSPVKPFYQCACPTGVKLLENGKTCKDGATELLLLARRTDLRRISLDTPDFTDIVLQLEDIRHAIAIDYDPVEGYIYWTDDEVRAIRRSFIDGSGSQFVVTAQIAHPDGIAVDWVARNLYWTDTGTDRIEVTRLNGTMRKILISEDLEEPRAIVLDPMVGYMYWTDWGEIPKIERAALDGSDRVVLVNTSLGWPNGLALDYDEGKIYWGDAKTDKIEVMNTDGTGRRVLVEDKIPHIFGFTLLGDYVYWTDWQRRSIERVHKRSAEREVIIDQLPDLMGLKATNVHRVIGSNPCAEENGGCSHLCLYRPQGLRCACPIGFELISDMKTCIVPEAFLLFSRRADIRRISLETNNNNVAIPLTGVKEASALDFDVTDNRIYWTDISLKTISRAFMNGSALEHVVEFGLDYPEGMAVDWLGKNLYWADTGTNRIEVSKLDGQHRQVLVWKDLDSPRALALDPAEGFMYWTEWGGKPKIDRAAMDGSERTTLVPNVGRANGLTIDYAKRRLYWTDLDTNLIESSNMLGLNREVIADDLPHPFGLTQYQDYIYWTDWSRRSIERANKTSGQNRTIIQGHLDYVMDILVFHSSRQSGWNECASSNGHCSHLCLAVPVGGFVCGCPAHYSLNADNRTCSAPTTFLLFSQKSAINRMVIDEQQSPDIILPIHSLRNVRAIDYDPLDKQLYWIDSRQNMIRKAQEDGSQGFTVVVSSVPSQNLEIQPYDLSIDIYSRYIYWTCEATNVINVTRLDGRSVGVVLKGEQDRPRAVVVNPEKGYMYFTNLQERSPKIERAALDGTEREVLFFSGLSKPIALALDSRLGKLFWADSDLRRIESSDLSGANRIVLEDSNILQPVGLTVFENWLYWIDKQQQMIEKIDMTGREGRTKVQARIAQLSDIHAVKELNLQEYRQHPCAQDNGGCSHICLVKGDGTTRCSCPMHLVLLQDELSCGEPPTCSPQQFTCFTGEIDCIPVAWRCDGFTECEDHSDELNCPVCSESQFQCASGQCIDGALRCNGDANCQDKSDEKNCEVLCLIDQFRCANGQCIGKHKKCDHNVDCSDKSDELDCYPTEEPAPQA
The experiment in a line: cell-based or functional assay.

Assay [2] concerns the target T1, LRP6 (low-density lipoprotein …). The assay is described as follows: cell-based or functional assay. The source holds these as a separate data set.

B1: ANT-1 (LRP Diabody-Fc-FZD Fab; paratopes 2540, 2542; 5016) (bispecific antibody)
heavy 1: MNLLLILTFVAAAVAEFEVQLVESGGGLVQPGGSLRLSCAASGFNISSYYIHWVRQAPGKGLEWVASIYSSYGYTSYADSVKGRFTISADTSKNTAYLQMNSLRAEDTAVYYCARTVRGSKKPYFSGWAMDYWGQGTLVTVSSGGGGSDIQMTQSPSSLSASVGDRVTITCRASQSVSSAVAWYQQKPGKAPKLLIYSASSLYSGVPSRFSGSRSGTDFTLTISSLQPEDFATYYCQQYYFLITFGQGTKVEIKLEDKTHTKVEPKSSDKTHNCPPCPAPELLGGPSVFLFPPKPKDTLMISRTPEVTCVVVDVSHEDPEVKFNWYVDGVEVHNAKTKPREEQYNSTYRVVSVLTVLHQDWLNGKEYKCKVSNKALPAPIEKTISKAKGQPREPQVYTLPPIRELMTSNQVSLSCAVKGFYPSDIAVEWESNGQPENNYKTTPPVLDSDGSFFLVSKLTVDKSRWQQGNVFSCSVMHEALHNHYTQKSLSLSPGKSGSETPGTSESATPESGGGEVQLVESGGGLVQPGGSLRLSCAASGFNIHSSSIHWVRQAPGKGLEWVAATYSSFGSITYADSVKGRFTISADTSKNTAYLQMNSLRAEDTAVYYCARYHHPFGYALDYWGQGTLVTVSSASTKGPSVFPLAPSSKSTSGGTAALGCLVKDYFPEPVTVSWNSGALTSGVHTFPAVLQSSGLYSLSSVVTVPSSSLGTQTYICNVNHKPSNTKVDKKVEPKSCDKTHT
heavy 2: MNLLLILTFVAAAVAEFEVQLVESGGGLVQPGGSLRLSCAASGFNISYSSIHWVRQAPGKGLEWVASISPYYGYTYYADSVKGRFTISADTSKNTAYLQMNSLRAEDTAVYYCARSSYFPWFSAMDYWGQGTLVTVSSGGGGSDIQMTQSPSSLSASVGDRVTITCRASQSVSSAVAWYQQKPGKAPKLLIYSASSLYSGVPSRFSGSRSGTDFTLTISSLQPEDFATYYCQQYYWPITFGQGTKVEIKLEDKTHTKVEPKTSDKTHTCPPCPAPELLGGPSVFLFPPKPKDTLMISRTPEVTCVVVDVSHEDPEVKFNWYVDGVEVHNAKTKPREEQYNSTYRVVSVLTVLHQDWLNGKEYKCKVSNKALPAPIEKTISKAKGQPREPMVFDLPPSREEMTKNQVSLWCMVKGFYPSDIAVEWESNGQPENNYKTTPPVLDSDGSFFLYSKLTVDKSRWQQGNVFSCSVMHEALHNHYTQKSLSLSPGKSGSETPGTSESATPESGGGEVQLVESGGGLVQPGGSLRLSCAASGFNIHSSSIHWVRQAPGKGLEWVAATYSSFGSITYADSVKGRFTISADTSKNTAYLQMNSLRAEDTAVYYCARYHHPFGYALDYWGQGTLVTVSSASTKGPSVFPLAPSSKSTSGGTAALGCLVKDYFPEPVTVSWNSGALTSGVHTFPAVLQSSGLYSLSSVVTVPSSSLGTQTYICNVNHKPSNTKVDKKVEPKSCDKTHT
light: DIQMTQSPSSLSASVGDRVTITCRASQSVSSAVAWYQQKPGKAPKLLIYSASSLYSGVPSRFSGSRSGTDFTLTISSLQPEDFATYYCQQGVYLFTFGQGTKVEIKRTVAAPSVFIFPPSDEQLKSGTASVVCLLNNFYPREAKVQWKVDNALQSGNSQESVTEQDSKDSTYSLSSTLTLSKADYEKHKVYACEVTHQGLSSPVTKSFNRGEC
For the molecule B1, the “TOPFLASH Maximal Signal (% Wnt3a maxima)” value in assay [1] worked out at 50 % Wnt3a maxima. In addition, the “TOPFLASH % Wnt Maxima” value in assay [2] is 49 % Wnt Maxima.

The record behind these values is patent US20260250398A1 (ANTLERA THERAPEUTICS, published 2026).
